Results taken from patent US20170182047A9, “Post-Translational Regulation of Catalytic Activities of Cytochrome P450 46A1 and Uses Thereof” (The Board of Regents of the University of Texas System, priority 2007, published 2017).

Legend:
[1] = substrate: CC(C)CCC[C@@H](C)[C@H]1CC[C@H]2[C@@H]3CC=C4C[C@@H](O)CC[C@]4(C)[C@H]3CC[C@]12C; assay: purified protein, by the assay type; conditions: other: compound as substrate, 37.0 °C
Method: (§1) The ability of recombinant CYP46A1 to metabolize CH-3S was tested using the reconstituted with cytochrome P450 reductase in vitro system. After termination of the enzyme reaction, the substrate and products were extracted, solvolyzed, converted into trimethylsilyl ethers and analyzed by gas chromatography-mass spectrometry as described (23). […] The reaction conditions were optimized for the formation of only one product.
(§2) The reconstituted system (1 ml) contained 0.1-0.25 μM P450, 0.5 μM NADPH cytochrome P450 oxidoreductase, varying concentrations of cold substrate (1-75 μM), 250,000 cpm of radiolabeled substrate, and 2U of catalase. […] The organic phase was isolated, evaporated, dissolved in acetonitrile, and subjected to HPLC. […] Substrate metabolism was <18% and linear with reaction time and enzyme concentration.

[2] = substrate: CC(C)CCC[C@@H](C)[C@H]1CC[C@H]2[C@@H]3CC=C4C[C@@H](OS(=O)(=O)O)CC[C@]4(C)[C@H]3CC[C@]12C; assay: purified protein, by the assay type; conditions: other: compound as substrate, 37.0 °C
Method: as §1, §2

B1: full-length CYP46A1 (Homo sapiens) (protein)
chain: MSPGLLLLGSAVLLAFGLCCTFVHRARSRYEHIPGPPRPSFLLGHLPCFWKKDEVGGRVLQDVFLDWAKKYGPVVRVNVFHKTSVIVTSPESVKKFLMSTKYNKDSKMYRALQTVFGERLFGQGLVSECNYERWHKQRRVIDLAFSRSSLVSLMETFNEKAEQLVEILEAKADGQTPVSMQDMLTYTAMDILAKAAFGMETSMLLGAQKPLSQAVKLMLEGITASRNTLAKFLPGKRKQLREVRESIRFLRQVGRDWVQRRREALKRGEEVPADILTQILKAEEGAQDDEGLLDNFVTFFIAGHETSANHLAFTVMELSRQPEIVARLQAEVDEVIGSKRYLDFEDLGRLQYLSQVLKESLRLYPPAWGTFRLLEEETLIDGVRVPGNTPLLFSTYVMGRMDTYFEDPLTFNPDRFGPGAPKPRFTYFPFSLGHRSCIGQQFAQMEVKVVMAKLLQRLEFRLVPGQRFGLQEQATLKPLDPVLCTLRPRGWQPAPPPPPC
[1]; Full-length CYP46A1
  Km: 5.4 µM
  kcat: 0.11^2 min^−1
  kcat/Km: 330 M⁻¹ s⁻¹
[2]; Full-length CYP46A1
  Km: 4.9 µM

B2: Δ(2-50)CYP46A1dH (Homo sapiens) (protein)
chain: MKKDEVGGRVLQDVFLDWAKKYGPVVRVNVFHKTSVIVTSPESVKKFLMSTKYNKDSKMYRALQTVFGERLFGQGLVSECNYERWHKQRRVIDLAFSRSSLVSLMETFNEKAEQLVEILEAKADGQTPVSMQDMLTYTAMDILAKAAFGMETSMLLGAQKPLSQAVKLMLEGITASRNTLAKFLPGKRKQLREVRESIRFLRQVGRDWVQRRREALKRGEEVPADILTQILKAEEGAQDDEGLLDNFVTFFIAGHETSANHLAFTVMELSRQPEIVARLQAEVDEVIGSKRYLDFEDLGRLQYLSQVLKESLRLYPPAWGTFRLLEEETLIDGVRVPGNTPLLFSTYVMGRMDTYFEDPLTFNPDRFGPGAPKPRFTYFPFSLGHRSCIGQQFAQMEVKVVMAKLLQRLEFRLVPGQRFGLQEQATLKPLDPVLCTLRPRGWQPAPPPPPC
[1]; Δ(2-50) CYP46A1
  Km: 7.7 µM
  kcat: 0.43 min⁻¹
  kcat/Km: 1000 M⁻¹ s⁻¹
[2]; Δ(2-50) CYP46A1
  Km: 3.3 µM
